Source: US20100330100A1
Like-named read-outs stand apart in the source and are kept apart here.

Legend:
Experiment in all cases: whole cell ELISA on immobilized PA103 strain, 50 µg/well IgG
[1] = target: PA4710 protein on the cell surface of Pseudomonas aeruginosa PA103 strain (Pseudomonas aeruginosa)
[2] = target: PA4710 protein on the cell surface of Pseudomonas aeruginosa PA103 strain (Pseudomonas aeruginosa); remark: listed apart in the source
[3] = target: PA4710 protein on the cell surface of Pseudomonas aeruginosa PA103 strain (Pseudomonas aeruginosa); remark: listed apart in the source

Substance: negative control IgG fraction purified from control rat sera obtained by administering only adjuvant (antibody)
- absorbance at 450 nm [1]: 0.092 absorbance
- absorbance at 450 nm [2]: 0.28 absorbance
- absorbance at 450 nm [3]: 0.244 absorbance
